Assay results as given in IntAct's records for PubMed 31515488.

B1: Serine/threonine-protein kinase PAK 5 (Homo sapiens), Q9P286 (parent)
chain: MFGKKKKKIEISGPSNFEHRVHTGFDPQEQKFTGLPQQWHSLLADTANRPKPMVDPSCITPIQLAPMKTIVRGNKPCKETSINGLLEDFDNISVTRSNSLRKESPPTPDQGASSHGPGHAEENGFITFSQYSSESDTTADYTTEKYREKSLYGDDLDPYYRGSHAAKQNGHVMKMKHGEAYYSEVKPLKSDFARFSADYHSHLDSLSKPSEYSDLKWEYQRASSSSPLDYSFQFTPSRTAGTSGCSKESLAYSESEWGPSLDDYDRRPKSSYLNQTSPQPTMRQRSRSGSGLQEPMMPFGASAFKTHPQGHSYNSYTYPRLSEPTMCIPKVDYDRAQMVLSPPLSGSDTYPRGPAKLPQSQSKSGYSSSSHQYPSGYHKATLYHHPSLQSSSQYISTASYLSSLSLSSSTYPPPSWGSSSDQQPSRVSHEQFRAALQLVVSPGDPREYLANFIKIGEGSTGIVCIATEKHTGKQVAVKKMDLRKQQRRELLFNEVVIMRDYHHDNVVDMYSSYLVGDELWVVMEFLEGGALTDIVTHTRMNEEQIATVCLSVLRALSYLHNQGVIHRDIKSDSILLTSDGRIKLSDFGFCAQVSKEVPKRKSLVGTPYWMAPEVISRLPYGTEVDIWSLGIMVIEMIDGEPPYFNEPPLQAMRRIRDSLPPRVKDLHKVSSVLRGFLDLMLVREPSQRATAQELLGHPFLKLAGPPSCIVPLMRQYRHH
partner: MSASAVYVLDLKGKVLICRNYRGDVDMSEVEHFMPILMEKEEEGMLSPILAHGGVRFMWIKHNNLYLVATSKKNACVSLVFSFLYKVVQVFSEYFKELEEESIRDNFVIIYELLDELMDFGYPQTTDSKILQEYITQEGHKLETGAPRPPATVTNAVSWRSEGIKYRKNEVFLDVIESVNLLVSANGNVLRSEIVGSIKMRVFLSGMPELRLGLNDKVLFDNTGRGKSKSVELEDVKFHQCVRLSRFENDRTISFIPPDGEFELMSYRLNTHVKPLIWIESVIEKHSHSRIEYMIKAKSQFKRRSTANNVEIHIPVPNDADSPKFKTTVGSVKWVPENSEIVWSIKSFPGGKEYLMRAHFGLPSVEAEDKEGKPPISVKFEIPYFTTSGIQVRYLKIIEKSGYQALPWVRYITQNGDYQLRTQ
B2: LIM/homeobox protein Lhx4 (Homo sapiens), Q969G2 (parent)
chain: MMQSATVPAEGAVKGLPEMLGVPMQQIPQCAGCNQHILDKFILKVLDRHWHSSCLKCADCQMQLADRCFSRAGSVYCKEDFFKRFGTKCTACQQGIPPTQVVRKAQDFVYHLHCFACIICNRQLATGDEFYLMEDGRLVCKEDYETAKQNDDSEAGAKRPRTTITAKQLETLKNAYKNSPKPARHVREQLSSETGLDMRVVQVWFQNRRAKEKRLKKDAGRHRWGQFYKSVKRSRGSSKQEKESSAEDCGVSDSELSFREDQILSELGHTNRIYGNVGDVTGGQLMNGSFSMDGTGQSYQDLRDGSPYGIPQSPSSISSLPSHAPLLNGLDYTVDSNLGIIAHAGQGVSQTLRAMAGGPTSDISTGSSVGYPDFPTSPGSWLDEMDHPPF
partner: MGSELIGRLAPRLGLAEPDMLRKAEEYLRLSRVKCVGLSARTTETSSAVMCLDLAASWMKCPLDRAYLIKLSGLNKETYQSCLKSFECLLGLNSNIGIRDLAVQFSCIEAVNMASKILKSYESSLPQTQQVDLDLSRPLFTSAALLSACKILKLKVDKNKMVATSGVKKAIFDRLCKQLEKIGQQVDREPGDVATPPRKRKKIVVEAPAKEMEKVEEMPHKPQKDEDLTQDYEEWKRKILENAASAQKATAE
B3: SH2 domain-containing protein 4A (Homo sapiens), Q9H788 (parent)
chain: MLKQILSEMYIDPDLLAELSEEQKQILFFKMREEQIRRWKEREAAMERKESLPVKPRPKKENGKSVHWKLGADKEVWVWVMGEHHLDKPYDVLCNEIIAERARLKAEQEAEEPRKTHSEEFTNSLKTKSQYHDLQAPDNQQTKDIWKKVAEKEELEQGSRPAPTLEEEKIRSLSSSSRNIQQMLADSINRMKAYAFHQKKESMKKKQDEEINQIEEERTKQICKSWKEDSEWQASLRKSKAADEKRRSLAKQAREDYKRLSLGAQKGRGGERLQSPLRVPQKPERPPLPPKPQFLNSGAYPQKPLRNQGVVRTLSSSAQEDIIRWFKEEQLPLRAGYQKTSDTIAPWFHGILTLKKANELLLSTGMPGSFLIRVSERIKGYALSYLSEDGCKHFLIDASADAYSFLGVDQLQHATLADLVEYHKEEPITSLGKELLLYPCGQQDQLPDYLELFE
partner: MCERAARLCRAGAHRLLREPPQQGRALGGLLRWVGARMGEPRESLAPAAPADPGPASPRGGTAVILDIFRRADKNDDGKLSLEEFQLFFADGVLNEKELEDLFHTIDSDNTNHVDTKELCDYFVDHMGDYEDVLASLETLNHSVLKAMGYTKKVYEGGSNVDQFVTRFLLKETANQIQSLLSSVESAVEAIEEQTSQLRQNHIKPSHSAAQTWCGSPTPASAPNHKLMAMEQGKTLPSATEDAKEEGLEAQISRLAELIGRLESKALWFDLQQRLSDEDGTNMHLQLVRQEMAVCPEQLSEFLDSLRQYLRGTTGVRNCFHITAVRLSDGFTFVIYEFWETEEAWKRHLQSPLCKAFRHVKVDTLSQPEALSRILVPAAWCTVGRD
B4: Origin recognition complex subunit 6 (Homo sapiens), Q9Y5N6 (parent)
chain: B2 partner
partner: B2 chain

Variants of: B1
Settings: with ap1m1_human AP1M1, Q9BXS5

Row | effect of a mutation on the interaction | Variant
1 | with no effect | V604I

Variants of: B2
Settings: with orc6_human ORC6, Q9Y5N6

Row | effect of a mutation on the interaction | Variant
2 | with no effect | N328S

Variants of: B3
Settings: with neca2_human NECAB2, Q7Z6G3

Row | effect of a mutation on the interaction | Variant
3 | with no effect | E216G
4 | with no effect | G263A
5 | with no effect | K303R

Variants of: B4
Settings: with lhx4_human LHX4, Q969G2

Row | effect of a mutation on the interaction | Variant
6 | with no effect | K201N
